Key:
[1] = Capillary isoelectric focussing (pI); assay type: physicochemical; conditions: HEK293F expression product
Method: Protocol 5: Capillary Isoelectric Focussing
• PA 800 plus (AB SCIEX) • Anolyte Solution: 200 mM Phosphoric Acid (Sigma-Aldrich #345 245). • 4.3M Urea (Sigma-Aldrich #U0631) in water. • Catholyte Solution: 300 mM Sodium Hydroxide. • 3M Urea (Sigma-Aldrich #U0631) in cIEF Gel (Beckman Coulter #477497). • Chemical Mobiliser: 350 mM Acetic Acid (Sigma-Aldrich #537 020). • Pharmalyte 3-10 (GE Healthcare 17-0456-01). • Cathodic Stabiliser: 500 mM Arginine (Sigma-Aldrich #A5006). • cIEF Peptide markers PI 4-10 (Beckman Coulter # A58481). • Anodic Stabiliser: 200 mM Iminodiacetic Acid (Sigma-Aldrich #220 000). • Neutral Capillary, 50 μm i.d.×45 cm, (Beckman Coulter #477 441)
• Turn on the PA800+ machine and UV lamp, allowing it to warm up 30 mins before use. • Clean the system electrodes and interface block with a damp Kimwipe. • Prepare buffer trays as shown, with 1.5 mL reagent per vial, 1 mL of water in the waste and place in the system. • 1. DDI water • 2. Anolyte • 3. Urea Solution • 4. 3M urea/cIEF Gel • 5. Chemical Mobilizer • 6. Waste • 7. Catholyte • 8. Chemical Mobilizer • 9. BI (Inlet Buffer Tray) • 10. BO (Outlet Buffer Tray) • NOTE. Each set of buffer vials is good for 6 consecutive runs or for 24 hours inside the instrument. • Insert the capillary cartridge into the system and close the front panel. • NOTE. […] When the capillary is not in use, submerge the capillary ends in vials filled with DDI water. • Prepare cIEF master mix using the table below. Dispense each reagent into a centrifuge tube, vortex 1 min, invert every 15-20 sec to ensure complete mixing and store at 2° C. to 8° C. for up to 1 day.
• Desalt and concentrate each antibody (to about 5 mg/ml) in 2M urea using Amicon Ultra 0.5 mL centrifugal filters (Sigma Z677108). • Mix 200 μL of master mix with 10 μL of protein, vortex the cIEF sample for 1 min, inverting the tube every 15-20 sec, then centrifuge at high speed to remove any air bubbles. Transfer 100 μL of sample into a micro vial. Place the micro vial into a universal plastic vial and cap it with a blue cap. Then place the sample vial in the inlet sample tray. • Run the “cIEF Conditioning—PA 800 plus.met” method to condition the column. • Rinse for 5 min at 50 psi with Chemical Mobilizer. See FIG. 2.10. • 2 Rinse for 2 min at 50 psi with DDI water. • 3 Rinse for 5 min at 50 psi with cIEF gel. • 4 Submerge both of the capillary ends in vials filled with DDI water. • Use the “cIEF Separation—PA 800 plus.met” method to create a sequence containing all protein samples and a blank. • Rinse for 3 min at 50 psi with Urea Solution. See FIG. 2.11. • Rinse for 2 min at 50 psi with DDI water. • Inject sample for 99.0 sec at 25 psi. • Water dip by submerging both capillary ends in DDI water. • Focusing step, 15 min at 25 kV under normal polarity (Time=0). • Chemical mobilization, 30 min at 30 kV under normal polarity (Time=15 min). • Stop data collection (Time=45 min). • Rinse for 2 min at 50 psi with DDI water (Time=45.10 min). • Submerged both of the capillary ends in DDI water (Time=47.20 min). • End the method (Time=47.30 min). • Put the “cIEF Shutdown—PA 800 plus.met” method at the end of the sequence to rinse the capillary and turn off the UV. • Rinse for 2 min at 50 psi with DDI water. See FIG. 2.12. • Rinse for 5 min at 50 psi with cIEF gel. • Turn off the UV lamp. • Submerge both of the capillary ends in vials filled with DDI water. • For short term storage (1 to 3 days), leave the capillary on the instrument. […]

[2] = Protein thermal shift (Tm); assay type: physicochemical; conditions: 0.5 mg/mL in PBS, HEK293F expression product
Method: Protocol 6: Protein Thermal Shift Protocol
• 96 well optical plate semi-skirted (Starlab cat.L1402-9700). • Protein thermal shift dye kit (Life Technologies cat.446148). • Microamp optical adhesive film (Applied Biosystems) • 7500 Real-Time PCR System (Life Technologies) • Test items: Antibodies from Evitria and Spirogen • Protein thermal shift v1.2 software (Life Technologies)
Protein thermal shift dye (2.5 μL 1:1000 dilution) was added to sample proteins (17.5 μL of 0.5 mg/mL in PBS) in a 96 well optical plate and mixed thoroughly. Every sample was done in quadruplicate. The plate was sealed with a optical adhesive film and bubbles in the wells were removed by centrifugation 1 min at 500 g, then placed on ice. The sealed plate was introduced in the 7500 Real-Time PCR System and subsequently the experiment was set up as follows:
Data analysis and derivation of Tm data were done using the software following the manufacturers instructions.

B1: Ab1 (antibody, V domains shown)
VH: EVQLVESGGDLVKPGGSLKLSCAASGFTFSSYGMSWVRQTPDKRLEWVATISSGGSYTYYPDSVKGRFTISRDNAKNTLYLQMSSLKSEDTAMYYCARHPIYYTYDDTMDYWGQGTSVTVSS
VL: ENVLTQSPAIMAASPGEKVTMTCSASSSVSSGNFHWYQQKPGTSPKLWIYRTSNLASGVPARFSGSGSGTSYSLTISSMEAEDAATYYCQQWSGYPWTFGGGTKLEIK
- pI [1]: 8.05
- Tm [2]: 69.52 °C

B2: Ab2: anti-AXL antibody, VH SEQ ID NO. 2, VL SEQ ID NO. 5, constant region derived from human antibodies (antibody, V domains shown)
VH: MGFKMESQFQVFVFVFLWLSGVDGQVQLVESGGGVVQPGRSLRLSCAASGFTFSSYGMSVRQAPGKGLEWVATISSGGSYTYYPDSVKGRFTISRDNSKNTLYLQMNSLRAEDTAVYYCARHPIYYTYDDTMDYWGQGTTVTVSS
VL: MGFKMESQFQVFVFVFLWLSGVDGEIVLTQSPATLSLSPGERATLSCSASSSVSSGNFHWYQQKPGLAPRLLIYRTSNLASGIPDRFSGSGSGTDFTLTISRLEPEDFAVYYCQQWSGYPWTFGPGTKVDIK
modifications: human constant regions; Synthetic heavy chain variable region 1H12RHA; Synthetic light chain variable region 1H12RKA
notes: 5, constant region derived from human antibodies
- pI [1]: 8.06
- Tm [2]: 59.71 °C

B3: Ab5: anti-AXL antibody, VH SEQ ID NO. 3, VL SEQ ID NO. 7, constant region derived from human antibodies (antibody, V domains shown)
VH: MGFKMESQFQVFVFVFLWLSGVDGEVQLVESGGGLVQPGGSLRLSCAASGFTFSSYGMSWVRQAPGKGLEWVATISSGGSYTYYPDSVKGRFTISRDNAKNSLYLQMNSLRAEDTAVYYCARHPIYYTYDDTMDYWGQGTLVTVSS
VL: MGFKMESQFQVFVFVFLWLSGVDGEIVLTQSPGTLSLSPGERATLSCSASSSVSSGNFHWYQQKPGLAPRLLIYRTSNLASGIPARFSGSGSGTDFTLTISSLEPEDFAVYYCQQWSGYPWTFGGGTKLEIK
modifications: human constant regions; Synthetic heavy chain variable region 1H12RHB; Synthetic light chain variable region 1H12RKB
notes: 7, constant region derived from human antibodies
- pI [1]: 7.54
- Tm [2]: 63.06 °C

B4: Ab4: anti-AXL antibody, VH SEQ ID NO. 3, VL SEQ ID NO. 5, constant region derived from human antibodies (antibody, V domains shown)
VH: MGFKMESQFQVFVFVFLWLSGVDGEVQLVESGGGLVQPGGSLRLSCAASGFTFSSYGMSWVRQAPGKGLEWVATISSGGSYTYYPDSVKGRFTISRDNAKNSLYLQMNSLRAEDTAVYYCARHPIYYTYDDTMDYWGQGTLVTVSS
VL: MGFKMESQFQVFVFVFLWLSGVDGEIVLTQSPATLSLSPGERATLSCSASSSVSSGNFHWYQQKPGLAPRLLIYRTSNLASGIPDRFSGSGSGTDFTLTISRLEPEDFAVYYCQQWSGYPWTFGPGTKVDIK
modifications: human constant regions; Synthetic heavy chain variable region 1H12RHB; Synthetic light chain variable region 1H12RKA
notes: as for B2
- pI [1]: 7.56
- Tm [2]: 60.32 °C

B5: Ab3: anti-AXL antibody, VH SEQ ID NO. 2, VL SEQ ID NO. 7, constant region derived from human antibodies (antibody, V domains shown)
VH: MGFKMESQFQVFVFVFLWLSGVDGQVQLVESGGGVVQPGRSLRLSCAASGFTFSSYGMSVRQAPGKGLEWVATISSGGSYTYYPDSVKGRFTISRDNSKNTLYLQMNSLRAEDTAVYYCARHPIYYTYDDTMDYWGQGTTVTVSS
VL: MGFKMESQFQVFVFVFLWLSGVDGEIVLTQSPGTLSLSPGERATLSCSASSSVSSGNFHWYQQKPGLAPRLLIYRTSNLASGIPARFSGSGSGTDFTLTISSLEPEDFAVYYCQQWSGYPWTFGGGTKLEIK
modifications: human constant regions; Synthetic heavy chain variable region 1H12RHA; Synthetic light chain variable region 1H12RKB
notes: as for B3
- pI [1]: 8.15
- Tm [2]: 62.05 °C
